We go through 94 variants from the supplement of paper PMC10567573.

B1: SOAT1 (parent)
chain: VYYIFERLCAPLFRNIKQEPFSAR
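Further: lentivirally expressed fusions sorted by FACS into six bins by GFP to DsRed ratio, PSI derived from sequencing read proportions per bin multiplied by bin number.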

In the data set the parent is B1. The experiment in a line: protein stability index of a GFP-peptide fusion (GPS, HEK-293T) (PSI 1-6); higher = more stable. To be noted: c terminus: a fixed tail appended.
As to VYYIFEDLCAPLFRNIKQEPFSAR [R7D], the protein stability index was 4.14. The result for VYYIFEHLCAPLFRNIKQEPFSAR [R7H] reads 2.62; that for VYYIFEYLCAPLFRNIKQEPFSAR [R7Y], 2.98; that for VYYIFEWLCAPLFRNIKQEPFSAR [R7W], 3.93.

Regarding VYYIFEILCAPLFRNIKQEPFSAR [R7I], the protein stability index stood at 5.23. With VYYIFEMLCAPLFRNIKQEPFSAR [R7M], the protein stability index was found to be 1.08. With VYYIFETLCAPLFRNIKQEPFSAR [R7T], the protein stability index came to 1.74. For the variant VYYIFESLCAPLFRNIKQEPFSAR [R7S], the protein stability index came out at 4.56. VYYIFERLCAPLFRTIKQEPFSAR [N15T]: the protein stability index is 3.46. With VYYIFERLCAPLFRIIKQEPFSAR [N15I], the protein stability index was 2.5. Regarding VYYIFERLCAPLFRAIKQEPFSAR [N15A], the protein stability index worked out at 2.28. For VYYIFERLCAPLFRGIKQEPFSAR [N15G] the value was 1.65; for VYYIFERLCAPLFREIKQEPFSAR [N15E], 3.52. VYYIFERLCAPLFRMIKQEPFSAR [N15M]: the protein stability index amounted to 2.01. As for VYYIFERLCAPLFRHIKQEPFSAR [N15H], the protein stability index came out at 2.86.

On to VYYIFERLCAPLFRRIKQEPFSAR [N15R], for which the protein stability index is 2. VYYIFERLCAPLFRWIKQEPFSAR [N15W]: the protein stability index worked out at 2.15. For the variant VYYIFERLCAPLFRVIKQEPFSAR [N15V], the protein stability index turned out to be 1.82.

VYYIFERLCAPLFRYIKQEPFSAR [N15Y]: the protein stability index was 1.85. As to VYYIFERLCAPLFRLIKQEPFSAR [N15L], the protein stability index is 2.75. Consider VYYIFERLCAPLFRFIKQEPFSAR [N15F], for which the protein stability index was 1.67. For the variant VYYIFERLCAPLFRKIKQEPFSAR [N15K], the protein stability index was found to be 2.84. Turning to VYYIFERLCAPLFRCIKQEPFSAR [N15C], the protein stability index came out at 2.61. As for VYYIAERLCAPLFRNIKQEPFSAR [F5A], the protein stability index is 1.68. For VYYICERLCAPLFRNIKQEPFSAR [F5C] the value was 2.46; for VYYIVERLCAPLFRNIKQEPFSAR [F5V], 3.45. For the variant VYYISERLCAPLFRNIKQEPFSAR [F5S], the protein stability index turned out to be 1.97. As for VYYIEERLCAPLFRNIKQEPFSAR [F5E], the protein stability index worked out at 2.49.

Consider VYYIYERLCAPLFRNIKQEPFSAR [F5Y], for which the protein stability index came to 1.81. In the case of VYYIMERLCAPLFRNIKQEPFSAR [F5M], the protein stability index is 1.9. As for VYYIRERLCAPLFRNIKQEPFSAR [F5R], the protein stability index was 2.8. For VYYIIERLCAPLFRNIKQEPFSAR [F5I], the protein stability index came out at 1.64. Turning to VYYINERLCAPLFRNIKQEPFSAR [F5N], the protein stability index is 1.49.

In the case of VYYIDERLCAPLFRNIKQEPFSAR [F5D], the protein stability index stood at 1.95. For VYYIHERLCAPLFRNIKQEPFSAR [F5H], the protein stability index was 1.56. The result for VYYIPERLCAPLFRNIKQEPFSAR [F5P] reads 2.6. For VYYIFERLCTPLFRNIKQEPFSAR [A10T] the value was 2.74. Regarding VYYIFERLCRPLFRNIKQEPFSAR [A10R], the protein stability index worked out at 1.53. For VYYIFERLCSPLFRNIKQEPFSAR [A10S] the value was 2.39. For the variant VYYIFERLCMPLFRNIKQEPFSAR [A10M], the protein stability index was 1.39. As for VYYIFERLCHPLFRNIKQEPFSAR [A10H], the protein stability index came to 3.56. With VYYIFERLCVPLFRNIKQEPFSAR [A10V], the protein stability index amounted to 3.16. Take VYYIFERLCWPLFRNIKQEPFSAR [A10W]: the protein stability index was determined as 2.4. The result for VYYIFERLCLPLFRNIKQEPFSAR [A10L] reads 3.17. On to VYYIFERLCNPLFRNIKQEPFSAR [A10N], for which the protein stability index is 3.54. With VYYIFERLCAPLFRNIVQEPFSAR [K17V], the protein stability index came out at 3.1. The result for VYYIFERLCAPLFRNIQQEPFSAR [K17Q] reads 2.52; that for VYYIFERLCAPLFRNIYQEPFSAR [K17Y], 2.06; that for VYYIFERLCAPLFRNIRQEPFSAR [K17R], 2.04. Take VYYIFERLCAPLFRNINQEPFSAR [K17N]: the protein stability index worked out at 2.87. For VYYIFERLCAPLFRNICQEPFSAR [K17C], the protein stability index worked out at 4.42. Take VYYIFERLCAPLFRNIEQEPFSAR [K17E]: the protein stability index came to 3.03. For VYYIFERLCAPLFRNIFQEPFSAR [K17F] the value was 1.74; for VYYIFERLCAPLFRNIDQEPFSAR [K17D], 1.76. Turning to VYYIFERLCAPLFRNIIQEPFSAR [K17I], the protein stability index was found to be 1.47.

As to VYYIFERLCAPLFRNIMQEPFSAR [K17M], the protein stability index worked out at 2.78. As for VYYIFERLCAKLFRNIKQEPFSAR [P11K], the protein stability index is 3.65. Turning to VYYIFERLCAGLFRNIKQEPFSAR [P11G], the protein stability index was determined as 2.08. On to VYYIFERLCARLFRNIKQEPFSAR [P11R], for which the protein stability index was determined as 2.24. For VYYIFERLCAQLFRNIKQEPFSAR [P11Q] the value was 1.25. For VYYIFERLCACLFRNIKQEPFSAR [P11C], the protein stability index came to 1.09. For VYYIFERLCADLFRNIKQEPFSAR [P11D], the protein stability index is 1.87. For VYYIFERLCAWLFRNIKQEPFSAR [P11W] the value was 2.77; for VYYIFERLCAILFRNIKQEPFSAR [P11I], 2.89.

Consider VYYIFERLCAYLFRNIKQEPFSAR [P11Y], for which the protein stability index was found to be 1.83. In the case of VYYIFERLCAVLFRNIKQEPFSAR [P11V], the protein stability index came to 2.39. As to VYYIFERLCAELFRNIKQEPFSAR [P11E], the protein stability index was determined as 1.76. The result for VYYIFERLCALLFRNIKQEPFSAR [P11L] reads 1.89; that for VYYIFERLCAHLFRNIKQEPFSAR [P11H], 3.92.

With VYYIFERLCAALFRNIKQEPFSAR [P11A], the protein stability index was determined as 1.17. On to VYYIFERLCASLFRNIKQEPFSAR [P11S], for which the protein stability index came to 1.57.

In the case of VYYIFERLCANLFRNIKQEPFSAR [P11N], the protein stability index worked out at 1.86. The result for VYYIFERLCAFLFRNIKQEPFSAR [P11F] reads 1.83. With VPYIFERLCAPLFRNIKQEPFSAR [Y2P], the protein stability index was found to be 1.44. For VQYIFERLCAPLFRNIKQEPFSAR [Y2Q] the value was 2.42. In the case of VTYIFERLCAPLFRNIKQEPFSAR [Y2T], the protein stability index was found to be 2.97.

For VWYIFERLCAPLFRNIKQEPFSAR [Y2W], the protein stability index was 2.26. Turning to VRYIFERLCAPLFRNIKQEPFSAR [Y2R], the protein stability index is 1.59.

Consider VSYIFERLCAPLFRNIKQEPFSAR [Y2S], for which the protein stability index is 1.87. Regarding VYYIFERLCAPLFRNIKFEPFSAR [Q18F], the protein stability index was 1.28. On to VYYIFERLCAPLFRNIKCEPFSAR [Q18C], for which the protein stability index is 2.19. With VYYIFERLCAPLFRNIKDEPFSAR [Q18D], the protein stability index stood at 2.9.

For the variant VYYIFERLCAPLFRNIKHEPFSAR [Q18H], the protein stability index turned out to be 3.42. Consider VYYIFERLCAPLFRNIKGEPFSAR [Q18G], for which the protein stability index came to 2.28.

On to VYYIFERLCAPLFRNIKKEPFSAR [Q18K], for which the protein stability index was found to be 1.37. Take VYYIFERLCAPLFRNTKQEPFSAR [I16T]: the protein stability index came out at 1.58. For VYYIFERLCAPLFRNDKQEPFSAR [I16D] the value was 3.95; for VYYIFERLCAPLFRNCKQEPFSAR [I16C], 2.46. VYYIFERLCAPLFRNMKQEPFSAR [I16M]: the protein stability index amounted to 1.75. The result for VYYIFERLCAPLFRNAKQEPFSAR [I16A] reads 1.91; that for VYYIFERLCAPLFRNYKQEPFSAR [I16Y], 2.17; that for VYYIFERLCAPLFRNGKQEPFSAR [I16G], 2.33. Take VYYIFERLCAPLFRNLKQEPFSAR [I16L]: the protein stability index worked out at 2.61. For the variant VYYIFERLCAPLFRNKKQEPFSAR [I16K], the protein stability index amounted to 2.45.
